Results taken from PMC11340043, “Antagonist anti-LIF antibody derived from naive human scFv phage library inhibited tumor growth in mice” (BMC Immunology, 2024).

How the values were obtained:
human gp130-his [1] = target: T1, human gp130-his (human, UniProt P40189 23-619); assay: ELISA; receptor competitive ELISA: wells coated with LIFR-his or gp130-his (100 ng/well); hLIF-hFc (50 ng) pre-mixed with recombinant antibody at 4 C for 1 h, then 37 C for 1 h on the plate; detected with HRP goat anti-human IgG; settings: both partners purified
T1 construct: gp130 (interleukin-6 receptor subunit beta), human; source: bought: Sino Biological
T1 sequence (looked up): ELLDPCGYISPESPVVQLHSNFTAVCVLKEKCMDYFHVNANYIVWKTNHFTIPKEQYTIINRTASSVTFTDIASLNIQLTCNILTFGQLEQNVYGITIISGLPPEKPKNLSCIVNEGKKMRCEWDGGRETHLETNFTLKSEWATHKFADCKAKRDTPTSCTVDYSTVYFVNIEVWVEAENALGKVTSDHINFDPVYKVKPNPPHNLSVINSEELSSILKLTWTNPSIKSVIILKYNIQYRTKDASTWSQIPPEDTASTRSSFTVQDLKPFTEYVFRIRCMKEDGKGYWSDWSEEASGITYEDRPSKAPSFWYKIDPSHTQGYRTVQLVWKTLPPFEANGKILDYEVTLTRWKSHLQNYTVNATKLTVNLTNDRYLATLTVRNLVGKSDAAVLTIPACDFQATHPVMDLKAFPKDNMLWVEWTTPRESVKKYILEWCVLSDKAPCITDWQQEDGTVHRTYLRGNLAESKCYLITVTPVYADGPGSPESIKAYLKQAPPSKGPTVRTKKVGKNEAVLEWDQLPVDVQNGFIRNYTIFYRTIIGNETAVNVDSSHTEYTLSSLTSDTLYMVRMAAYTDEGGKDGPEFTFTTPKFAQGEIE

human gp130-his [2] = target: T1, human gp130-his; assay: SPR; Biacore 8K, CM5 chip with anti-mouse IgG, 1G11 captured; 200 nM hLIF flowed, followed by 500 nM LIFR-his or gp130-his; 25 C, pH 7.4, 10 mM HEPES, 150 mM NaCl, 3 mM EDTA, 0.05% Tween-20; settings: both partners purified

B1: human LIF with human IgG1-Fc tag (Fc fusion)
chain: not shown
notes: also called hLIF-hFc; LIF-hFc
Q: Does B1 bind (human gp130-his [1])?
A: binds

B2: human LIF (ligand)
chain: not shown
notes: also called hLIF; source: bought: Genscript
Q: Does B2 bind (human gp130-his [2])?
A: binds
